We go through two molecules from article PMC2150824 (The Journal of Cell Biology, 2001).

For data set [1], the target named is F-actin (rabbit skeletal muscle actin) (rabbit, UniProt P68135 1-377). The experiment in a line: co-sedimentation.
The data set “SEC” deals with the molecule itself. The experiment in a line: SEC. Background: Size exclusion chromatography separates by hydrodynamic size, large species first.

B1: yeast coronin (natural protein)
chain: MSGKFVRASKYRHVFGQAAKKELQYEKLKVTNNAWDSNLLKTNGKFIAVNWNASGGGAFAVIPIEEVGKAPDQVPLFRGHTAQVLDTDFDPFNDHRIASGSDDSKIGIWDIPENYKFHDHVDEDGEPIDIKPVKFLTGHARKVGHVLYHPVAENVLASSSGDYTVKLWNVETGKDMITLKHPDMVTSMSFSYDGNYLATVARDKKLRVWNIREEKIVSEGPAHTGAKNQRVVWLGNSDRLATTGFSKLSDRQIGIWDAFNIEKGDLGGFYTVDQSSGILMPFYDEGNKILYLVGKGDGNIRYYEFQNDELFELSEFQSTEAQRGFAVAPKRMVNVKENEVLKGFKTVVDQRIEPVSFFVPRRSEEFQEDIYPDAPSNKPALTAEEWFSGKSVEGPILVSMRSIYDGSAPSFHEAKRPQQPTTQETALEEKKEQPKVEKPISESEKEVKQEAPKSPSPLKSASSSSTINHVLKEDNSINKLLKKSSDIDQVNNAEDPSRDTSGWEEADDEPAPIKIETPVTPTETKKDRTPKVEPSKELKPEPVSIATDRKQEQSLPQEEKSSEKTKSPEQEKSATPPSSITAAKTAITASSKEEPSAARTSPKSLGLKKSVEKLSTLVLQLEDVVDKLTKANLDKDERLLKLEQKIGELSK
Regarding B1, the binding result in data set [1] is “binds”.

B2: endogenous Hip1R stripped from CCVs with 0.5 M Tris-HCl (natural protein, UniProt Q9JKY5 1-1068, looked up)
chain: MNSIKNVPARVLSRRPGHSLEAEREQFDKTQAISISKAINSQEAPVKEKHARRIILGTHHEKGAFTFWSYAIGLPLSSSSILSWKFCHVLHKVLRDGHPNVLHDYQRYRSNIREIGDLWGHLRDQYGHLVNIYTKLLLTKISFHLKHPQFPAGLEVTDEVLEKAAGTDVNNIFQLTVEMFDYMDCELKLSESVFRQLNTAIAVSQMSSGQCRLAPLIQVIQDCSHLYHYTVKLMFKLHSCLPADTLQGHRDRFHEQFHSLKNFFRRASDMLYFKRLIQIPRLPEGPPNFLRASALAEHIKPVVVIPEEAPEEEEPENLIEISSAPPAGEPVVVADLFDQTFGPPNGSMKDDRDLQIENLKREVETLRAELEKIKMEAQRYISQLKGQVNGLEAELEEQRKQKQKALVDNEQLRHELAQLKALQLEGARNQGLREEAERKASATEARYSKLKEKHSELINTHAELLRKNADTAKQLTVTQQSQEEVARVKEQLAFQMEQAKRESEMKMEEQSDQLEKLKRELAARAGELARAQEALSRTEQSGSELSSRLDTLNAEKEALSGVVRQREAELLAAQSLVREKEEALSQEQQRSSQEKGELRGQLAEKESQEQGLRQKLLDEQLAVLRSAAAEAEAILQDAVSKLDDPLHLRCTSSPDYLVSRAQAALDSVSGLEQGHTQYLASSEDASALVAALTRFSHLAADTIVNGAATSHLAPTDPADRLMDTCRECGARALELVGQLQDQTVLPRAQPSLMRAPLQGILQLGQDLKPKSLDVRQEELGAMVDKEMAATSAAIEDAVRRIEDMMSQARHESSGVKLEVNERILNSCTDLMKAIRLLVMTSTSLQKEIVESGRGAATQQEFYAKNSRWTEGLISASKAVGWGATQLVESADKVVLHMGKYEELIVCSHEIAASTAQLVAASKVKANKNSPHLSRLQECSRTVNERAANVVASTKSGQEQIEDRDTMDFSGLSLIKLKKQEMETQVRVLELEKTLEAERVRLGELRKQHYVLAGGMGTPSEEEPSRPSPAPRSGATKKPPLAQKPSIAPRTDNQLDKKDGVYPAQLVNY
As to B2, in “SEC”, the “stoichiometry N” value was determined as 2.

Broadly, the stoichiometry N is the number of molecules, sites or subunits per partner or assembly.
